Experimental data published in patent US20250326818A1 (UNIVERSIT T BASEL, published 2025).

Molecular target: T1, CD123 ECD wt (human, UniProt P26951 19-305)
T1 construct: Recombinant extracellular domain; Biotinylated when captured for the hIL3 assay; also called CD123_WT; recombinant wildtype CD123
T1 sequence: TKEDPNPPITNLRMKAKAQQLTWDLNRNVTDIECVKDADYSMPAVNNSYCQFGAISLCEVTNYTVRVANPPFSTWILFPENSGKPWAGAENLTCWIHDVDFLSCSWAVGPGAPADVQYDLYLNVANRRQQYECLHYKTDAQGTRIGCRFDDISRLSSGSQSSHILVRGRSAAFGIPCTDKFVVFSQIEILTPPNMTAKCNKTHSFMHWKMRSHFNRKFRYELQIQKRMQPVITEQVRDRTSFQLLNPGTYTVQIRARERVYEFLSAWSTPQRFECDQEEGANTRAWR
Test: BLI (Octet), flotetuzumab hIgG1 captured on anti-human Fc tips, CD123 ECD as analyte, level at 250 s
Experimental: Antibody flotetuzumab hIgG1 was captured by Anti-Human Fc capture biosensor (AHC) (Sartorius, PN: 18-5060) for 300 s at 0.5 μg/mL. Analytes CD123 ECD wt and variants (only CD123 ECD variants at high analyte concentrations) were titrated at 7 concentrations from 50 nM to 0.78 nM or 300 nM to 4.7 nM, respectively. Association to analyte was monitored for 300 s and dissociation for 600 s (CD123 wt) and 900 s (CD123 variants). Double reference subtraction was performed against buffer only well and biosensor loaded with a negative hIgG1 control. Regeneration was performed in 10 mM Gly-HCl pH 1.7. Data were analyzed using the Octet Data Analysis software HT

B1: Flotetuzumab hIgG1 (antibody, V domains shown)
VH: EVQLVQSGAELKKPGASVKVSCKASGYTFTDYYMKWVRQAPGQGLEWIGDIIPSNGATFYNQKFKGRVTITVDKSTSTAYMELSSLRSEDTAVYYCARSHLLRASWFAYWGQGTLVTVSS
VL: DFVMTQSPDSLAVSLGERVTMSCKSSQSLLNSGNQKNYLTWYQQKPGQPPKLLIYWASTRESGVPDRFSGSGSGTDFTLTISSLQAEDVAVYYCQNDYSYPYTFGQGTKLEIK
notes: Tested as hIgG1 in BLI; also called Anti-CD123 antibody (Flotetuzumab)
**Q.** Does B1 bind?
**A.** Result: binds
